# Data: patent publication US20020155121A1
# Columns and labels:
# [1] = target: CCR5 expressed on cells (L1.2/R5, Cf2Th-R5, U373/CD4/CCR5) (UniProt P51681); test: flow cytometry on L1.2/R5 cells
# [2] = target: CCR5 expressed on cells (L1.2/R5, Cf2Th-R5, U373/CD4/CCR5) (UniProt P51681); test: cell-based or functional assay
# [3] = target: CXCR4 expressed on cells (L1.2/X4, U373/CD4/CXCR4) (UniProt P61073); test: cell-based or functional assay
# UniProt P61073, sequence (P61073 whole entry): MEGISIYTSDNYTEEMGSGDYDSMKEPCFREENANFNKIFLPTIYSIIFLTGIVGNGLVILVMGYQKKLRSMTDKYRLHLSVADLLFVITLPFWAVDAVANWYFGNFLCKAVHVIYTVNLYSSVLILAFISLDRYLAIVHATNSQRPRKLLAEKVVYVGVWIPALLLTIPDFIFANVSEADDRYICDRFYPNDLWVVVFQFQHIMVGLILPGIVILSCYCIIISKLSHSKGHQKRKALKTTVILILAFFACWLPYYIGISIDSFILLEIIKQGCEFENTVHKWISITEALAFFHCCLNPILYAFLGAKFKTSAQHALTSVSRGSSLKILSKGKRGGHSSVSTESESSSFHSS
# UniProt P51681, sequence (P51681 whole entry): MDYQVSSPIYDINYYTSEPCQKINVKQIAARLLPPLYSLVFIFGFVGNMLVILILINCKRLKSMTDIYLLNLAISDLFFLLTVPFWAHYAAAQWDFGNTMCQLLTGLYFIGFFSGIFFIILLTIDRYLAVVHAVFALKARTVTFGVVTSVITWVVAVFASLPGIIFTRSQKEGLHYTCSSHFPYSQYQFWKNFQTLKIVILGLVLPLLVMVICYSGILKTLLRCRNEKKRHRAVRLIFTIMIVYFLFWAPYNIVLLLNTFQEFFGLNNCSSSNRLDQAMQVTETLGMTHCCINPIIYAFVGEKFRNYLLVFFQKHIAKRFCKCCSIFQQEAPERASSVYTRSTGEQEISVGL
substance,measurement,setting,value
truncated single chain (TcSC) gp120-CD4 chimeric polypeptide (other; other documents disagree on this pair),fold higher concentration than FLSC to approach saturation binding,[1],10 fold
full-length single chain (FLSC) gp120-CD4 chimeric polypeptide (other; other documents disagree on this pair),concentration of maximal binding,[1],10 µg/mL
gp120-CD4-IgG1 chimeric polypeptide (Fc fusion),"ID90 (µg/mL), neutralization of 89.6 on U373/CD4/CCR5",[2],3.56 µg/mL
same,"ID90 (µg/mL), neutralization of ADA on U373/CD4/CCR5",[2],4.58 µg/mL
same,"ID90 (µg/mL), neutralization of BaL on U373/CD4/CCR5",[2],3.1 µg/mL
same,"ID90 (µg/mL), neutralization of 89.6 on U373/CD4/CXCR4",[3],> 10 µg/mL
same,"ID90 (µg/mL), neutralization of 2005 on U373/CD4/CXCR4",[3],> 10 µg/mL
same,"ID90 (µg/mL), neutralization of 2044 on U373/CD4/CXCR4",[3],> 10 µg/mL
